In patent publication US20100254977A1:
Each block holds one molecule with its values, some of them ahead of it.

Tests used:
[1] = biological target: human αv-integrins (human) (UniProt P06756); test: cell-based or functional assay
[2] = biological target: human αv-integrins (human), P06756; test: cell-based or functional assay
Sequence of human αv-integrins (human), P06756 (P06756 31-1048): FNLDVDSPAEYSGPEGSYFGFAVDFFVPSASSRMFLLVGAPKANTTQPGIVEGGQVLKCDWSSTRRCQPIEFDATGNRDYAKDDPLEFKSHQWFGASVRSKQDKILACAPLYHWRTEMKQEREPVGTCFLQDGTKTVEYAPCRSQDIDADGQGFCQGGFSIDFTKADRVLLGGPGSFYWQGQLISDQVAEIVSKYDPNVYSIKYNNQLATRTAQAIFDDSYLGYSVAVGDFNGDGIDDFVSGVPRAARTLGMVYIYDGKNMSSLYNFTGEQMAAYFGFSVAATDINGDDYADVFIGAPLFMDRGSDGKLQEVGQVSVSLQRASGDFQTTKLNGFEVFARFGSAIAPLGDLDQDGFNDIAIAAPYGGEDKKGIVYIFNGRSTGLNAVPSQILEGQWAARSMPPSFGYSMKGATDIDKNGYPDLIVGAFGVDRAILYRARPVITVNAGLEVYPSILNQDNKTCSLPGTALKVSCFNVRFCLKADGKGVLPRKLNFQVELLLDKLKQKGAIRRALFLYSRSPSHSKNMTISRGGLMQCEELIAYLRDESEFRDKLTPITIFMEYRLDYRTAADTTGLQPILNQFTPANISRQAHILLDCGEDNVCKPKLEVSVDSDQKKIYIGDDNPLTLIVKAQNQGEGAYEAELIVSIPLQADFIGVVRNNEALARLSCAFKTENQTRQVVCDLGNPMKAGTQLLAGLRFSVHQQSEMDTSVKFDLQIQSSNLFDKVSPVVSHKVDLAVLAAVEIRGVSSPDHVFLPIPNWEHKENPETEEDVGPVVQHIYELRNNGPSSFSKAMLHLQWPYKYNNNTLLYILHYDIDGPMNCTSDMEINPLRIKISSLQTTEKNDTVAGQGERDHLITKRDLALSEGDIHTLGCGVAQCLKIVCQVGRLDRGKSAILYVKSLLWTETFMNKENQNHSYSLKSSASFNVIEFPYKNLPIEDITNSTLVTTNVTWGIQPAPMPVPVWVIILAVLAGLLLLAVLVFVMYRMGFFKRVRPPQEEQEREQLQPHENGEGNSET

Sequence of human αv-integrins (human) (P06756 31-1048): as above

EC50, blocking of VEGF-induced migration of human endothelial cells on vitronectin [1]: 50 nM | EC50, blocking of tumor cell adhesions [1]: 0.1 to 50 nM | EC50, inhibition of human endothelial cell adhesion to vitronectin [1]: 10 nM | IC50, growth of HUVEC on vitronectin (Alamar Blue) [1]: 4 ng/mL
Molecule: DI-17E6 (antibody)

IC50, growth of HUVEC on vitronectin (Alamar Blue) [2]: 5 ng/mL
B1: mouse mAb 17E6 (antibody, mouse IgG1, V domains shown)
VH: EPKSSDKTHTCPPCP
VL: WGQGTTVTVSS
